{"source": "paper PMC2816692", "about": "“Structural and Biochemical Characterization of SrcA, a Multi-Cargo Type III Secretion Chaperone in Salmonella Required for Pathogenic Association with a Host” (PLoS Pathogens, 2010)", "proteins": {"B1": {"name": "His-tagged SrcA (SsrB-regulated chaperone A, STM2138) (natural protein)", "chain": "MYSRADRLLRQFSLKLNTDSIVFDENRLCSFIIDNRYRILLTSTNSEYIMIYGFCGKPPDNNNLAFEFLNANLWFAENNGPHLCYDNNSQSLLLALNFSLNESSVEKLECEIEVVIRSMENLYHILQDKGITLDTDYT", "notes": "SrcA (STM2138), type III secretion chaperone of Salmonella enterica serovar Typhimurium; the srcA gene was amplified from chromosomal DNA; STM numbers count on the LT2 genome; Dimer by crystal structure and gel filtration; source: E. coli Rosetta (DE3), purified (nickel-chelating resin, Mono-Q anion exchange); not shown: His6, C-terminal, kept"}}, "target": "the molecule itself", "test": "SEC; SrcA alone, 200 µl at 1.1 mg/ml; Superdex S200 10/300GL; 20 mM Tris pH 7.5, 200 mM KCl", "data": [{"protein": "B1", "values": [{"measurement": "stoichiometry N", "result": 2}]}]}
